Test results as given in the supplement of paper PMC12042874.
± gives the uncertainty stated by the source.

Assay: amyloid nucleation score (Sup35N fusion, yeast selection) (log enrichment); library NNK3; higher = more nucleation; inactive = no reads after selection
How it was run: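 The nucleation score, computed with DiMSum, is the log enrichment of output over input reads, centred on the mode score of non-aggregating sequences. Sequences with under 100 input reads were dropped. Reads were generated by Illumina sequencing of plasmid inserts from psi-negative yeast with Sup35N fused to peptides of 20 random codons, induced with 100 μM copper sulfate for 24 hours and grown 7 days at 30°C on medium lacking adenine and uracil.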

HTFYFYSMSSGFKRHETTSG
amyloid nucleation score: inactive

VRTRMEPRG
amyloid nucleation score: inactive

YLVLKDTRYAYTLLRSMLSA
amyloid nucleation score: inactive

MVCWANKHWYSSHLLYDSVY
amyloid nucleation score: inactive

ICYTYNGPRSSVGVVLLGQ
amyloid nucleation score: inactive

SFFLVSWLGALTVVIPVQ
amyloid nucleation score: inactive

FFSDRLTSTGSMES
amyloid nucleation score: inactive

GLTVCTSYLSISAYDMYANL
amyloid nucleation score: 1.29 ± 0.067

LLSIYCY
amyloid nucleation score: inactive

YFTSEPLSAPSQWGRVKGSA
amyloid nucleation score: inactive

LIFLTMVSLLFGDQRRSGVQ
amyloid nucleation score: 0.221 ± 0.54

SQLAYVGTVKTNFDKISRCG
amyloid nucleation score: inactive

FSIAMFQANSGYASR
amyloid nucleation score: 1.25 ± 0.14

CHHLRWDNCVRREELDFTCV
amyloid nucleation score: inactive

ALLYRERKYSMLVKFVVYRS
amyloid nucleation score: inactive

WTSSVILRPSMCLLGWYMLV
amyloid nucleation score: inactive

NATSQLVVGAVQ
amyloid nucleation score: inactive

TPYQYFFRNCWKMSYRRAKI
amyloid nucleation score: inactive

GVLASIKELH
amyloid nucleation score: inactive

LPRLFVVDYPSQ
amyloid nucleation score: inactive

VSMRPMTSSRLKRFKYRYLY
amyloid nucleation score: inactive

TDHAWFWEQS
amyloid nucleation score: inactive

GLFLGYSLIASVIGRLVDNL
amyloid nucleation score: inactive

FTWSVHKVDEVCHLLETGDA
amyloid nucleation score: inactive

ALSNN
amyloid nucleation score: inactive

TSQQHPASVSKGYMLRDG
amyloid nucleation score: inactive

VEMGVLSGFK
amyloid nucleation score: -0.288 ± 0.75

YFCSFREVRSHGQTLR
amyloid nucleation score: inactive

FFFTEFFELHIWTKSLPFTS
amyloid nucleation score: inactive

YVTLYLDTGSCYLSLGCGAG
amyloid nucleation score: 0.758 ± 0.22

SFFRNRGGEDFFISWWFENN
amyloid nucleation score: inactive

FVGRFCMFNLGRCLPIVLGS
amyloid nucleation score: inactive

QTSMVVDDYCILYVLHWGWG
amyloid nucleation score: inactive

KCRDLIRNVVPNSAIELDPS
amyloid nucleation score: inactive

FFGFPLV
amyloid nucleation score: inactive

CWAYVMRT
amyloid nucleation score: inactive

NGDGLVLYIRLLRLRRHVDT
amyloid nucleation score: inactive

QFPSFANIIANCPLGFLWYA
amyloid nucleation score: inactive

PRLKFASYVMEMPLKFGEGI
amyloid nucleation score: inactive

LTYTYGVGVMIGIITHRLVC
amyloid nucleation score: inactive

YHVMV
amyloid nucleation score: inactive

SSWFNGSLTVRQLIQRGRLF
amyloid nucleation score: inactive

SGWTPYLCSSSYELFREQRK
amyloid nucleation score: -0.084 ± 0.27

RYYNYVSHIPAHRAVTLSAT
amyloid nucleation score: inactive

GFYRLVVQGLVVSRGLNWCV
amyloid nucleation score: inactive

RRVLTARDWVCH
amyloid nucleation score: inactive

VKTWCYRCCSGALSLS
amyloid nucleation score: inactive

LASQELLFVRIRDSLAKCGV
amyloid nucleation score: inactive

HRREMSHCKREPWKSINFYW
amyloid nucleation score: inactive

NAHCMVLMHRAKVWIFMINK
amyloid nucleation score: inactive

CQYPCVMLCQC
amyloid nucleation score: 0.504 ± 0.19

DRSIEVDAYSCAVGVYQGPV
amyloid nucleation score: inactive

ITNCFWHWIRAISYANAANS
amyloid nucleation score: inactive

TEQNVSGCEGEGSYGYTRYA
amyloid nucleation score: inactive

DILFTSIS
amyloid nucleation score: 0.257 ± 0.41

LLMDYYFVGLKLVPFAVPKV
amyloid nucleation score: 1.22 ± 0.15

YISCMCANIRNIFVISIH
amyloid nucleation score: 1.81 ± 0.08

IYDAGFVYQIGTEEQVCNRV
amyloid nucleation score: inactive

TQRRFMYMAFNQYMSQSSSR
amyloid nucleation score: inactive

IYIRRVRISVEATLRHCCVI
amyloid nucleation score: inactive

AHCLTRGSVTPCPLGSRAVR
amyloid nucleation score: inactive

GFESPRGFSSVFSIVYGFWA
amyloid nucleation score: 0.855 ± 0.2

RLTHLLHCYTI
amyloid nucleation score: inactive

LWGKNWIDVAECIVCLPQAS
amyloid nucleation score: inactive

MLYFALNLC
amyloid nucleation score: inactive

YYCSDLSRSMDRSLRSTWPF
amyloid nucleation score: inactive

LRMWERMCAVSL
amyloid nucleation score: inactive

GNNRGTVSWVERGAWALTKA
amyloid nucleation score: inactive

YSYIEGL
amyloid nucleation score: inactive

VRRLFVARCRYCQLMYFRGE
amyloid nucleation score: inactive

SSPCSVMVKVGSDHFERVAI
amyloid nucleation score: inactive

CYCLLGVRLHVWIS
amyloid nucleation score: inactive

DPHCQGFVWGSCMDVWYLSL
amyloid nucleation score: 2.7 ± 0.062

SLWVSI
amyloid nucleation score: inactive

LLTFALIL
amyloid nucleation score: 0.462 ± 0.19

QWCCVTRFIGYSKGYGRKAP
amyloid nucleation score: inactive

RTVKNSRLGTMIVY
amyloid nucleation score: inactive

REWCLEVYHWYITRSHVYWC
amyloid nucleation score: inactive

DMCEGYVNYCRMHRAMRHDD
amyloid nucleation score: inactive

VDKDTE
amyloid nucleation score: inactive

WNYGTALMLRQIGSGFICIY
amyloid nucleation score: inactive

SMDMRWAFICLILTITSMGR
amyloid nucleation score: inactive

PVEPI
amyloid nucleation score: inactive

STRMRYICCSCLL
amyloid nucleation score: 2.99 ± 0.078

LSRDGVFVPPTSRSYHPRLK
amyloid nucleation score: inactive

SLIYTRFGSTSWCSKNF
amyloid nucleation score: 1.53 ± 0.14

EHNYVSTIGYSCRFEPGTRR
amyloid nucleation score: inactive

TVGCHSGPELMFQSWNSRSL
amyloid nucleation score: inactive

LCITIVSRWVVGVFHQMFYT
amyloid nucleation score: -0.219 ± 0.68

NPMTHYHMIHRSQGNCLLRR
amyloid nucleation score: inactive

NLSLGQFIKAAVKFVHKPRK
amyloid nucleation score: 1.34 ± 0.14

RLITNNVTS
amyloid nucleation score: inactive

CVYGPRFNF
amyloid nucleation score: 1.94 ± 0.067

PSVTLQHSGIATWSILDRTL
amyloid nucleation score: 0.316 ± 0.26

VRCYRVIMRLTFAETCQGHP
amyloid nucleation score: inactive

GGYVDLRLMT
amyloid nucleation score: inactive

WHTLLDCGVGEFWS
amyloid nucleation score: inactive

TVDFLSLVCVVIFRGTDWRR
amyloid nucleation score: -1.03 ± 1.1

ASLVKSHDHMRASHLGGLHK
amyloid nucleation score: inactive

VFLGCYSSYIVIWDARAPG
amyloid nucleation score: 1.96 ± 0.071

TICQADSRSSFQGLDCRRVR
amyloid nucleation score: -1.01 ± 2.5

GGNICPIRPLSRKEWELGRH
amyloid nucleation score: -0.566 ± 1.4

EHFNPRNC
amyloid nucleation score: inactive

NAKPCSGPTMTGADEFPLCL
amyloid nucleation score: inactive

IFFSIVSWKDAGCSEAINCQ
amyloid nucleation score: inactive

WVRAA
amyloid nucleation score: inactive

FAYWWRTVTPVCSGLVRYCW
amyloid nucleation score: inactive

SRWSGFCIYRGN
amyloid nucleation score: inactive

SQKFVYLMSPSWPGGQLEAR
amyloid nucleation score: inactive

MQYLIYPTWLVIELNC
amyloid nucleation score: 0.684 ± 0.13

FCLLIRAVSPCLTSGRIILV
amyloid nucleation score: inactive

FFVLLLFVRVYKIALNFMMG
amyloid nucleation score: inactive

GLNLISISFRAGFAGMHRRA
amyloid nucleation score: 1.82 ± 0.099

TLWFQPDFTHVRRWYGLGLR
amyloid nucleation score: inactive

CVVNGDLVASLKSLFLGWCL
amyloid nucleation score: inactive

TFSVRLSYLSRNAICDERVL
amyloid nucleation score: 0.33 ± 0.46

LFANTYVV
amyloid nucleation score: inactive
